In patent publication US20090181034A1 (AGENSYS, published 2009):

Key:
[1] = biological target: T1, PSCA (prostate stem cell antigen), human (human, UniProt O43653 12-83); experiment: FACS titration on SW780 cells, anti-hIgG-PE, Prism sigmoidal dose-response fit
T1 construct: Tested on cells: SW780, LAPC9AI, PC3-PSCA, B300.19-PSCA, prostate cancer xenograft cells and tumour tissue; also called PSCA v.1; PSCA variant 1
Description: A panel of seven (7) anti-human PSCA antibodies was tested for their binding affinity to PSCA on SW780 cells, a human bladder cancer cell line expressing high level of PSCA. […] At the end of the incubation, cells were washed and incubated with anti-hIgG-PE detection antibody for 45 min at 4° C. After washing the unbound detection antibodies, the cells were analyzed by FACS; MFI values of each point were obtained using CellQuest Pro software and were used for affinity calculation using Graphpad Prism software: Sigmoidal Dose-Response (variable slope) equation (Table VII and Table VIII).

murine PSCA = biological target: T2, murine PSCA (mouse, UniProt P57096 21-95); experiment: FACS on 293T cells expressing murine PSCA, anti-hIgG-PE
T2 construct: whole, on cells; also called mouse PSCA; Mouse-PSCA
T2 sequence (looked up): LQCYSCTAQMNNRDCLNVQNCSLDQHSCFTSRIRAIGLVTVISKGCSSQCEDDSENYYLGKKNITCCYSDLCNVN
Description: The cells were incubated with the respective antibodies using the following protocol. […] Specific recognition was determined using anti-hIgG-PE secondary detection antibody.

Binder | Kd [1] [nM] | binding result (murine PSCA)
Ha1-4.37 (antibody, IgG1, V domains shown, Fully human MAb from human gamma 1 producing XenoMouse (IgG1, kappa), hybridoma ATCC PTA-6702) VH: PGALQESGPGLVRPSQTLSLTCTVSGGSISSGGTYYWIWIRQHPGKGLEWIGYIYYSGSTYYNPSLKSRVTISVDTSKNQFSLKLSSVTAADTAVYYCARDGITMVRGISGGMDVWGQGTTVTVSS VL: ASVGDRVTITCRASQSISSHLNWYQQKPGKAPKLLIYAASSLQSGVPSRFSGSGSGTDFTLSISSLQPEDFATYFCQQSYSIPRTFGQGTKVEITR | 0.23 | –
Ha1-4.117 (antibody, V domains shown, Fully human MAb from human gamma 1 producing XenoMouse (IgG1, kappa), hybridoma ATCC PTA-6699; A fluorescein conjugate was used for IHC) VH: QVQLQESGPGLVKPSQTLSLTCTVSGGSISSGGYYWIWIRQHPGKGLEWIGYIYYNGNTYYNPSLKSRVTMSVDTSKNQFSLKLSSVTAADTAVYYCARDGITMIRGYYYGMDVWGQGTTVTVSS VL: QLTQSPSSVSASVGDRVTITCRASRGISSWLAWYQQKPGKAPKLLIYTASSLQSGVPSRFSGSGSGTDFTLTISSLQPEDFATYYCQQAYSFPRTFGQGTKVEIKR | 0.32 | binds
Ha1-1.16 (antibody, IgG1, V domains shown, Fully human MAb from human gamma 1 producing XenoMouse immunized with PSCA-GST (IgG1, kappa), hybridoma ATCC PTA-6698; Ha1-1.16.1 (subclone label) is treated as the same antibody; also called Ha1-1.16.1) VH: QVQLQQSGPGLVKPSQTLSLTCAISGDSVSSNSAAWNWIRQSPSRGLEWLGRTYYRSKWYNGYAVSVKSRMTINPDTSKNQFSLQLNSVTPEDTAVYYCARERLGELYGMDVWGQGTTVTVSS VL: QLTQSPDSLAVSLGERATINCKSSQNILYRSSKKNHLVWYQQKPGQPPKLLIYWASTRESGVPARFSGSGSGTDFTLTISTLQAEDVAVYYCQQYYSTPPTFGQGTRLEIKR | 6.91 | no binding
Ha1-5.99 (antibody, IgG2, V domains shown, Fully human MAb from human gamma 2 producing XenoMouse (IgG2, kappa), hybridoma ATCC PTA-6703; Ha1-5.99.1 (subclone label) is treated as the same antibody; also called HA1-5.99.1; Ha1-5.99.1) VH: QVHLQQWGAGLLKPSETLSLTCAVYGGSFSGYYWSWIRQPPGKGLEWIGEINHSGSTSYKPSLKSRVTVSVDTSKNQFSLKLSYVTAADTAVYYCARDRGDYGDFLFDYWGQGTLVTVSS VL: SPGERATLSCRASQSIGSTYLAWYQQKPGQAPRLLIYGASSRATGIPERFSGSGSGTDFTLTISGLEPEDFAVFYCQQCGSSPPTFGQGTKVEIKR | 0.28 | –
